Laboratory results: publication PMC4434323

Each sequence was assayed against lin-48 (F34D10.5) (Caenorhabditis elegans) (UniProt G5EDU6).
lin-48 (F34D10.5) (Caenorhabditis elegans), sequence (G5EDU6 83-280): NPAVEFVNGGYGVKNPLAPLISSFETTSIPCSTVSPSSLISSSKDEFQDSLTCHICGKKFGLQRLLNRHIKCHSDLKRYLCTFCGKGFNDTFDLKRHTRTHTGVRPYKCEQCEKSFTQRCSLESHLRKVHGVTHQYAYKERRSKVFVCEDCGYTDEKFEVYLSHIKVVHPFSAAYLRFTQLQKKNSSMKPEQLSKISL

Sequence | binding signal (PBM E-score (-0.5 to 0.5))
AACCGTTA (double strand) [8-mer AACCGTTA] | 0.49
ACCGTTAC (double strand) [8-mer ACCGTTAC] | 0.497
ACCGTTAG (double strand) [8-mer ACCGTTAG] | 0.489
ACCGTTAT (double strand) [8-mer ACCGTTAT] | 0.493
AGTAACGG (double strand) [8-mer AGTAACGG] | 0.487
ATAACGGA (double strand) [8-mer ATAACGGA] | 0.485
ATAACGGG (double strand) [8-mer ATAACGGG] | 0.494
CCGTTACA (double strand) [8-mer CCGTTACA] | 0.486
CCGTTATA (double strand) [8-mer CCGTTATA] | 0.494
CCGTTATC (double strand) [8-mer CCGTTATC] | 0.49
GACCGTTA (double strand) [8-mer GACCGTTA] | 0.496

Each sequence was assayed against T1, ZK337.2 (ZK337.2) (Caenorhabditis elegans) (UniProt O46016).
T1 sequence: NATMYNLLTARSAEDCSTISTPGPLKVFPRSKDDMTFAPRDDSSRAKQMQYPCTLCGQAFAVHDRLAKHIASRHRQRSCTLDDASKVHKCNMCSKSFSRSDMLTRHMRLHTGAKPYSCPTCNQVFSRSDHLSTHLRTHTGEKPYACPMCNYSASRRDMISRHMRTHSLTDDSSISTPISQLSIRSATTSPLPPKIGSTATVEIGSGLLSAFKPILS

Sequence | binding signal (PBM E-score (-0.5 to 0.5))
CCCACGCA (double strand) [8-mer CCCACGCA] | 0.488
CCCCCGCA (double strand) [8-mer CCCCCGCA] | 0.494
CGCCCACG (double strand) [8-mer CGCCCACG] | 0.492
CGCCCCCA (double strand) [8-mer CGCCCCCA] | 0.494
CGCCCCCG (double strand) [8-mer CGCCCCCG] | 0.49

Each sequence was assayed against ZC328.2 (ZC328.2) (Caenorhabditis elegans) (UniProt O02050).
ZC328.2 (ZC328.2) (Caenorhabditis elegans), sequence (O02050 entry or part of it): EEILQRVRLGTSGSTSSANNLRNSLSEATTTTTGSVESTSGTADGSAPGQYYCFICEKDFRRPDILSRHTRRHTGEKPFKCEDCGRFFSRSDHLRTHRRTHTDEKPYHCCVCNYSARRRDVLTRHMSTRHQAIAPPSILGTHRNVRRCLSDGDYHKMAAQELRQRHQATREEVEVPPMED

Sequence | binding signal (PBM E-score (-0.5 to 0.5))
CCCACGCA (double strand) [8-mer CCCACGCA] | 0.497
CCCCCGCA (double strand) [8-mer CCCCCGCA] | 0.497
CGCCCCCG (double strand) [8-mer CGCCCCCG] | 0.489
GCCCACGC (double strand) [8-mer GCCCACGC] | 0.485

The sequences below were run against T2, che-1 (C55B7.12) (Caenorhabditis elegans) (UniProt Q966L8).
T2 sequence: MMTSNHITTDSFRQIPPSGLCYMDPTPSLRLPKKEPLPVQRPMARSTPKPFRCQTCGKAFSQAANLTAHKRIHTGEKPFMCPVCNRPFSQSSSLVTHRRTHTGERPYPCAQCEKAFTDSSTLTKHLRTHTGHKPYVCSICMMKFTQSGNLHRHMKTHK

Sequence | binding signal (PBM E-score (-0.5 to 0.5))
AAGAAGCC (double strand) [8-mer AAGAAGCC] | 0.493
AAGGCTTC (double strand) [8-mer AAGGCTTC] | 0.494
AGAAGCCA (double strand) [8-mer AGAAGCCA] | 0.489
AGAAGCCC (double strand) [8-mer AGAAGCCC] | 0.491
AGGAAGCC (double strand) [8-mer AGGAAGCC] | 0.49
AGGCTTCC (double strand) [8-mer AGGCTTCC] | 0.491
AGGGCTTC (double strand) [8-mer AGGGCTTC] | 0.497
ATGAAGCC (double strand) [8-mer ATGAAGCC] | 0.489
ATGGCTTC (double strand) [8-mer ATGGCTTC] | 0.495
GAAGCCCC (double strand) [8-mer GAAGCCCC] | 0.492
GGAAGCCA (double strand) [8-mer GGAAGCCA] | 0.494
GGAAGCCC (double strand) [8-mer GGAAGCCC] | 0.495
GGCTTCCC (double strand) [8-mer GGCTTCCC] | 0.497
GGGCTTCA (double strand) [8-mer GGGCTTCA] | 0.493

Each sequence was assayed against odd-2 (C34H3.2) (Caenorhabditis elegans) (UniProt Q9N5X6).
odd-2 (C34H3.2) (Caenorhabditis elegans), sequence (Q9N5X6 74-252): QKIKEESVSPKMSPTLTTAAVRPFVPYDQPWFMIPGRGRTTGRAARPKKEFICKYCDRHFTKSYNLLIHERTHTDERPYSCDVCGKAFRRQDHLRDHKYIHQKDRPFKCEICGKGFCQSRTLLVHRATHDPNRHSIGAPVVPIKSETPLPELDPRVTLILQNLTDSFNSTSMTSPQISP

Sequence | binding signal (PBM E-score (-0.5 to 0.5))
AACAGTAG (double strand) [8-mer AACAGTAG] | 0.492
ACAGTAGC (double strand) [8-mer ACAGTAGC] | 0.499
ACGGAAGC (double strand) [8-mer ACGGAAGC] | 0.485
ACGGTAGC (double strand) [8-mer ACGGTAGC] | 0.498
AGCTACCG (double strand) [8-mer AGCTACCG] | 0.492
AGCTACTG (double strand) [8-mer AGCTACTG] | 0.492
CAGTAGCA (double strand) [8-mer CAGTAGCA] | 0.495
CAGTAGCC (double strand) [8-mer CAGTAGCC] | 0.492
CAGTAGCG (double strand) [8-mer CAGTAGCG] | 0.488
CCAGTAGC (double strand) [8-mer CCAGTAGC] | 0.492
CCGGTAGC (double strand) [8-mer CCGGTAGC] | 0.496
CGCTACCG (double strand) [8-mer CGCTACCG] | 0.488
CGGTAGCA (double strand) [8-mer CGGTAGCA] | 0.496
CGGTAGCC (double strand) [8-mer CGGTAGCC] | 0.485
GCTACTGA (double strand) [8-mer GCTACTGA] | 0.486

What follows are sequences tested against egrh-1 (C27C12.2) (Caenorhabditis elegans) (UniProt Q18250).
egrh-1 (C27C12.2) (Caenorhabditis elegans), sequence (Q18250 324-461): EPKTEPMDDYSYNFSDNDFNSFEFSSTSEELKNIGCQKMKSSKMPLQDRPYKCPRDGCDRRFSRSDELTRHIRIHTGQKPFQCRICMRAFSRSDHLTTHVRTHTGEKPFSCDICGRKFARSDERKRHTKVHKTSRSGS

Sequence | binding signal (PBM E-score (-0.5 to 0.5))
CCCACGCA (double strand) [8-mer CCCACGCA] | 0.496
CCCCCGCA (double strand) [8-mer CCCCCGCA] | 0.495
CGCCCACG (double strand) [8-mer CGCCCACG] | 0.495
CGCCCCCA (double strand) [8-mer CGCCCCCA] | 0.493
CGCCCCCG (double strand) [8-mer CGCCCCCG] | 0.496
GCCCACGC (double strand) [8-mer GCCCACGC] | 0.495

The sequences below were run against T3, F13H6.1 (F13H6.1) (Caenorhabditis elegans) (UniProt H2KZR6).
T3 sequence: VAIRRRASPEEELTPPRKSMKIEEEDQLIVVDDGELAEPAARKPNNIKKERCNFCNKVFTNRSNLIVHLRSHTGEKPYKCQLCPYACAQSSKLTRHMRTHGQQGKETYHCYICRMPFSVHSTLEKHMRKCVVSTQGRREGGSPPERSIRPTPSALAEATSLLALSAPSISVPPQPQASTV

Sequence | binding signal (PBM E-score (-0.5 to 0.5))
AAGTGACC (double strand) [8-mer AAGTGACC] | 0.494
AATGACCA (double strand) [8-mer AATGACCA] | 0.496
AATGGTCA (double strand) [8-mer AATGGTCA] | 0.495
ACTGACCA (double strand) [8-mer ACTGACCA] | 0.497
ACTGGTCA (double strand) [8-mer ACTGGTCA] | 0.495
AGTGACCA (double strand) [8-mer AGTGACCA] | 0.498
AGTGGTCA (double strand) [8-mer AGTGGTCA] | 0.497
ATTGGTCA (double strand) [8-mer ATTGGTCA] | 0.495
CTGACCAC (double strand) [8-mer CTGACCAC] | 0.495
CTTGACCA (double strand) [8-mer CTTGACCA] | 0.496
GAGTGACC (double strand) [8-mer GAGTGACC] | 0.496
GATGACCA (double strand) [8-mer GATGACCA] | 0.494
GGTGGTCA (double strand) [8-mer GGTGGTCA] | 0.494
GTGGTCAA (double strand) [8-mer GTGGTCAA] | 0.496
GTTGACCA (double strand) [8-mer GTTGACCA] | 0.494

What follows are sequences tested against T4, nhr-204 (R02C2.4) (Caenorhabditis elegans) (UniProt O44543).
T4 sequence: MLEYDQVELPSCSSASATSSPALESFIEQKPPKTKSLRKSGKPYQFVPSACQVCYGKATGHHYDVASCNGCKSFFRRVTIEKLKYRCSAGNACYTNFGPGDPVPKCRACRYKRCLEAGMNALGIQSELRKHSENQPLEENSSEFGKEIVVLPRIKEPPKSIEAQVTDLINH

Sequence | binding signal (PBM E-score (-0.5 to 0.5))
ATTGGTCA (double strand) [8-mer ATTGGTCA] | 0.477

Each sequence was assayed against T5, F10B5.3 (F10B5.3) (Caenorhabditis elegans) (UniProt Q09534).
T5 sequence: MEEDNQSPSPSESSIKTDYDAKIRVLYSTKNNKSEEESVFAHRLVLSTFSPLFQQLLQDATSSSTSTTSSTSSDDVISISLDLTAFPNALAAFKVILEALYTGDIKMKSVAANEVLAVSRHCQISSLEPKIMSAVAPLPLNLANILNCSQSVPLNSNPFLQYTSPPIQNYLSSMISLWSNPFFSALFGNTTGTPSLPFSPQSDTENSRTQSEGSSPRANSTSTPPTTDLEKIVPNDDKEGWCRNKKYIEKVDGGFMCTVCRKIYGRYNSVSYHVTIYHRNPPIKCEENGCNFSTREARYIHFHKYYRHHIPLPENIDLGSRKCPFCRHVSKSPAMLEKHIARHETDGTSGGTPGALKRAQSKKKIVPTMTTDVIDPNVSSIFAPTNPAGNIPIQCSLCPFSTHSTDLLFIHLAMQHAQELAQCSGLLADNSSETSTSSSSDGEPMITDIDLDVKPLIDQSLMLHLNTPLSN

Sequence | binding signal (PBM E-score (-0.5 to 0.5))
ATTTCCAG (double strand) [8-mer ATTTCCAG] | 0.473
CCTCGAAA (double strand) [8-mer CCTCGAAA] | 0.474
CCTGGAAA (double strand) [8-mer CCTGGAAA] | 0.48
CTGGAAAA (double strand) [8-mer CTGGAAAA] | 0.475
GTTCCAGA (double strand) [8-mer GTTCCAGA] | 0.473
TACACGAA (double strand) [8-mer TACACGAA] | 0.476
TCCACGAA (double strand) [8-mer TCCACGAA] | 0.476
TCCTCGAA (double strand) [8-mer TCCTCGAA] | 0.481
TCCTGGAA (double strand) [8-mer TCCTGGAA] | 0.491
TCGTGGAA (double strand) [8-mer TCGTGGAA] | 0.483
TCTGGAAA (double strand) [8-mer TCTGGAAA] | 0.487
TTCCGGAA (double strand) [8-mer TTCCGGAA] | 0.49
TTCGAGAA (double strand) [8-mer TTCGAGAA] | 0.477
